Laboratory results taken from paper PMC12583524 (Nature Communications, 2025).

Legend:
[1] = molecular target: recombinant CHIKV E1–E2 fusion protein (Chikungunya virus, sequence as …); assay: SPR
[2] = molecular target: T1, CHIKV VLP (strain 119067) (Chikungunya virus, strain 119067, UniProt A0A1I9WLN7); assay: cryo-EM structure
[3] = molecular target: T1, CHIKV VLP (strain 119067); assay: dynamic light scattering

B1: C37 Fab (papain digestion of the mAb) (Fab, V domains shown)
VH: QVQLQESGPGLVKPSETLSLTCTVSGGSIGSSSYYWGWIRQPPGKGLQWIGSFHYSGTTYYNPSLKSRVTISVDTSKNHFSLKLSSVTAADTAVYYCASRQNWNDGYFDYWGQGTLVTVSS
VL: DIQMTQSPATLSLSPGERATLFCRASQSVSSSLAWYQQKPGQAPRLLIYDASNRATGIPARFSGSGSGTDFTLTISSLEPEDFAVYYCQQRGNWPPITFGQGTRLDTK
[1]
  Kd: < 1 nM

B2: C37 Fab (recombinant, His-tag on the heavy chain) (Fab, V domains shown)
VH: B1 VH
VL: B1 VL
[2]
  binding result: binds

B3: C37 IgG (antibody, V domains shown)
VH: B1 VH
VL: B1 VL
[3]
  binding result: binds

B4: C34 Fab (papain digestion of the mAb) (Fab, V domains shown)
VH: EVQLVESGGGLVQPGRSLRLSCAASGFTFDDYAMHWVRQAPGKGLEWVSGISWNSGSIGYADSVKGRFTISRDNAKNSLYLQMNSLRAEDTALYYCAKDMGYSGNDDYYGMDVWGQGTTVTVSS
VL: DIQLTQSPSSLSASVGDRVTITCRASQRISSYLNWYQQKPGKAPKLLIYGAFSLQSGVPSRFSGSGSGTDFTLTISSLQPEDFATYYCQQSYRTLTRTFGQGTKVEIK
[1]
  Kd: < 1 nM

B5: C34 IgG (antibody, V domains shown)
VH: B4 VH
VL: B4 VL
[3]
  binding result: binds

B6: C34 Fab (recombinant, His-tag on the heavy chain) (Fab, V domains shown)
VH: B4 VH
VL: B4 VL
[2]
  binding result: binds
